Article PMC6294249, “CryoEM reveals how the complement membrane attack complex ruptures lipid bilayers” (Nature Communications, 2018)

Experiments:
[1] = biological target: T1, complement C8 alpha chain (human, UniProt P07357 31-584, N-linked glycan at N407); test: cryo-EM structure; human MAC assembled on DOPC:DOPE liposomes by sequential addition of C5b6, C7, C8 and C9 (molar ratio 1:1:1:18, 1 h at 37 °C, then 4 °C overnight; 20 mM HEPES-NaOH, 150 mM NaCl, pH 7.4), solubilised in Cymal-5, purified by sucrose density centrifugation; open and closed conformations separated by 3D classification; conditions: both partners purified
T1 construct: complement component C8 alpha chain, human; It stood in the assay as one chain of the bought C8 heterotrimer (α, β, γ); also called C8α; source: bought: Complement Technology (as C8)

complement C6 = biological target: T2, complement C6 (human, UniProt P13671 22-934); test: as above; conditions: both partners purified
T2 construct: complement component C6, human; 10 domains (TSP1, TSP2, LDL, MACPF, EGF, TSP3, CCP1, CCP2, FIM1, FIM2); It stood in the assay as part of the bought C5b6 complex; FIM1 and FIM2 were left out of the atomic model (weak or no density); source: bought: Complement Technology (as the C5b6 complex)
T2 sequence (P13671 22-934): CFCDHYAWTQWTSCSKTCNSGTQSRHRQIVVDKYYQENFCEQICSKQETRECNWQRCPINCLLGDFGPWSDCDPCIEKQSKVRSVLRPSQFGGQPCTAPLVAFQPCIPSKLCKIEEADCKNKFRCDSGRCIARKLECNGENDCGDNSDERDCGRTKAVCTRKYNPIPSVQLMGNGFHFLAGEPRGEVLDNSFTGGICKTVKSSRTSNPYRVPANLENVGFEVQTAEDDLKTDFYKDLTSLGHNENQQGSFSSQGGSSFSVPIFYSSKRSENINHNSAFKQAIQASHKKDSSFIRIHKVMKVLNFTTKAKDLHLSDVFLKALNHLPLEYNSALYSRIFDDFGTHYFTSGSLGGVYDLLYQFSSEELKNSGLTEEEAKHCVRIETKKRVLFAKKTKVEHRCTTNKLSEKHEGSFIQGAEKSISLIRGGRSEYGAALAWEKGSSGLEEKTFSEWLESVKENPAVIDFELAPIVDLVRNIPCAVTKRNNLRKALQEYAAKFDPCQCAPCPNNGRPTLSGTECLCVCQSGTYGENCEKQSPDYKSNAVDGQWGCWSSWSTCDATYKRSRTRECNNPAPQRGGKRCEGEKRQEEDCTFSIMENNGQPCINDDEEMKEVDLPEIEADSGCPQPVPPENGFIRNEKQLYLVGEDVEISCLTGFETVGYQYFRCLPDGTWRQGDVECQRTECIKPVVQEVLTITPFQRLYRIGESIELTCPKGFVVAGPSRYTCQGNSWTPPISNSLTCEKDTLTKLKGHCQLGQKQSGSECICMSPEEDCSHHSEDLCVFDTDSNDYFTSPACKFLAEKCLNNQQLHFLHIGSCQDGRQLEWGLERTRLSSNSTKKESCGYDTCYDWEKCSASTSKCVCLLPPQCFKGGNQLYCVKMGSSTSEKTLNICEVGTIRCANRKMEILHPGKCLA

T1 sequence (P07357 31-584): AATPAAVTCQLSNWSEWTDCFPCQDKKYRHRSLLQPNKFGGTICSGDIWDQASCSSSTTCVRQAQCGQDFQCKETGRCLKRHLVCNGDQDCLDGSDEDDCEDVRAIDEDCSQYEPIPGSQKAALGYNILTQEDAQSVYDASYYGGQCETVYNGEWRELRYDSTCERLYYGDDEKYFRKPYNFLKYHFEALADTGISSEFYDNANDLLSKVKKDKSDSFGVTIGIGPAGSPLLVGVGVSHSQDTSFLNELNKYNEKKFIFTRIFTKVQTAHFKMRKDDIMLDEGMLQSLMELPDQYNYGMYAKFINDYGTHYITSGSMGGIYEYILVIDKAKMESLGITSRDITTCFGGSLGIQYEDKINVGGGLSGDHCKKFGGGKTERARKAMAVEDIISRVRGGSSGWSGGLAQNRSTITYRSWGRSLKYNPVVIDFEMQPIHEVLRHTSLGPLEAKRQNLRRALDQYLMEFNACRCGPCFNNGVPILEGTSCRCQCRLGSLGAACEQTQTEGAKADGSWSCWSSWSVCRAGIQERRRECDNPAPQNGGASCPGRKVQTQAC

binding result [1]: binds | binding result (complement C6): binds
B1: complement C9 (natural protein)
chain: not shown
modifications: N-linked glycans at N215, N256, N394; O-linked glycan at T427
notes: complement component C9, human; The model began from a homology model with C8β as template; source: bought: Complement Technology
